Assay results as given in patent US20210107996A1 (PROMAB BIOTECHNOLOGIES, published 2021).

Biological target: T1, recombinant PLAP extracellular domain protein (Sino Biological) (human, UniProt P05187 23-506)
T1 construct: Bought protein; also called purified recombinant PLAP protein; PLAP antigen
Assay: BLI (Blitz ForteBio); antibody captured on anti-mouse-capture biosensors, PLAP antigen in solution
Description: The binding of PLAP antibody with recombinant PLAP extracellular domain protein from Sino Biological was performed using Blitz ForteBio system as described. In brief, anti-mouse-capture (AMC) biosensors were soaked in kinetics buffer (PBS, 0.1% Tween, 0.05% BSA) for 10 min and then with mouse anti-PLAP antibody at 0.1 mg/mL in same buffer for 30 min. After washing, biosensors were used to bind the PLAP antigen at different concentrations. The Kd was detected with Blitz system software.

T1 sequence (P05187 23-506): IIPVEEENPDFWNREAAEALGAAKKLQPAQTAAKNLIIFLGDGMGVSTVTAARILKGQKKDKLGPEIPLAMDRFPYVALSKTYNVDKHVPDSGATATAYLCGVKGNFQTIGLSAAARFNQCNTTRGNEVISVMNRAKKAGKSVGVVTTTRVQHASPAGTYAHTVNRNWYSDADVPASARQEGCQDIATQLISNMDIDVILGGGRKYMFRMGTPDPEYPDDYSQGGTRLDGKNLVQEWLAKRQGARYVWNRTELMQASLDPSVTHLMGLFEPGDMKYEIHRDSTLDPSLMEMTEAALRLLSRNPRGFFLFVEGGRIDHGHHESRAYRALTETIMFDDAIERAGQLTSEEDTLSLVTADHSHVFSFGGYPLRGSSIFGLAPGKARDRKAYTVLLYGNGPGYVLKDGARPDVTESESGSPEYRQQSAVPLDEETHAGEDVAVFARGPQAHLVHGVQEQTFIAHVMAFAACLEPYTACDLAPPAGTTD

- Kd: 3.2 nM
B1: mouse monoclonal PLAP antibody (clone H17E2) (antibody, V domains shown)
VH: QVQLKESGPGLVAPSQSLSITCTVSGFSLTSYGVSWVRQPPRKGLEWLGVIWEDGSTNYHSALISRLSINKDNSKSQVFLKLNSLQTDDTATYYCAKPHYGSSYVGAMEYWGQGTSVTVSS
VL: DIQMTQSPASLTASVGETVTITCRASENIYSYVAWYQQKQGKSPQFLVYNAKSLAEGVPSRFSGSGSGTQFSLKINSLQPEDFGNYYCQHHYVSPWTFGGGTKLEIR
notes: Bought whole mouse monoclonal antibody (Thermo Fisher / Ximbio); also called PLAP antibody H17E2; mouse anti-PLAP antibody
